Test results from patent publication US11262348B2, “Cell-based assays for detection of antibodies or other factors that neutralize uptake of lysosomal enzymes” (BIOMARIN PHARMACEUTICAL INC., priority 2015, dated 2022).
Like-named read-outs stand apart in the source and are kept apart here. Marks after values point to notes of the source that are not given here.

How the values were obtained:
[1] = cited from earlier work; for proportion of patients with NAb positivity: long-term extension study
[2] = tested on: Jurkat cells; assay: Cell-based flow cytometry assay of Alexa488-rhGALNS uptake (screening assay, % SI); design: species or system human; conditions: for NHPS (% SI): no AbPC; for MFI: Alexa488-rhGALNS 0.4 μg/mL, 20% pooled human serum
Method: Cell uptake of rhGALNS is measured using flow cytometry to determine the amount of fluorophore-conjugated rhGALNS taken up by Jurkat cells. Jurkat cells are a non-adherent human T cell line that express CI-MPR, which binds and targets rhGALNS to the lysosome. rhGALNS neutralizing antibodies (NAb) are detected in samples by a decrease in fluorophore-conjugated rhGALNS uptake (calculated as % inhibition) that exceeds the screening cut point (SCP).
For a 1:1 dilution, 60 μL per well of controls were added in duplicate or in quadruplicate for 2 sets into the appropriate wells. Similarly, for a 1:1 dilution of sample, 60 μL per well of patient screening samples were added into the appropriate wells. For a 1:1 dilution for the confirmation assay, 60 μL per well of patient confirmation samples were added in duplicate into the corresponding wells. The plate was covered, wrapped in foil and allowed to incubate overnight for 14 to 20 hours at 2-8° C.
Assay: Prior to the sample incubation step, the cell plates were removed from the CO2 incubator and observed to ensure the cells were healthy and viable. […] After the incubation was completed, the cells were washed in PBS by centrifuging the plate for 6 min at 310×g in a tabletop centrifuge at 14 to 18° C., repeated two to five times as appropriate. After the last wash, the plate was removed from the centrifuge, the cell pellet resuspended in 100 μL viability stain (red fluorescent reactive dye 1:1000 dilution) and tested for viability. Once viability testing was complete, the cells were centrifuged 6 min at 310×g in a tabletop centrifuge at 14 to 18° C.
Percent Signal Inhibition (% SI) is calculated as [% SI=1—mean median fluorescence intensity (MFI) of sample/mean MFI of control×100]. Confirmatory assay data were analyzed as recovery ratio, defined as mean confirmatory assay MFI of sample/mean screening assay MFI of sample. The titer was calculated as the interpolated dilution factor at which the sample crossed the titer cut point determined by linear regression analysis (Microsoft Excel).

[3] = Efficacy in clinical study: 6MWT distance and urine keratan sulfate (uKS); type: in vivo, human; conditions: 24-week treatment period, QOW and QW
Method: The primary efficacy measure in the clinical study was the distance walked in a 6MWT, which provides a measure of endurance. Keratan sulfate, an rhGALNS substrate, was also measured in individuals' urine (uKS) to track the pharmacodynamic effect of treatment with elosulfase alfa. NAb titers detected with the functional NAb assay were plotted against the change from baseline to week 24 in 6MWT distance, and the percentage change in uKS from baseline. No association was observed between NAb titer and 6MWT (FIG. 11A) or NAb titer and uKS (FIG. 11B) in individuals dosed weekly or every 2 weeks.

[4] = after 22 weeks, cited from earlier work; for half-life (t1/2): plasma
[5] = Elosulfase alfa pharmacokinetics in individuals with Morquio A syndrome; type: in vivo, human; conditions: QOW and QW cohorts, week 22 PK vs week 24 NAb titer
Excerpt: Effect of NAb Titer on Elosulfase Alfa Pharmacokinetics: In order to further explore the association between NAbs and pharmacokinetics, NAb titers from the functional NAb assay were compared to total clearance (CL) of drug after intravenous administration and elimination half-life (t1/2). Increased NAb titers were associated with prolonged t1/2 in both the QOW and QW cohorts (FIG. 12A).
Antibodies that neutralize elosulfase alfa uptake through CI-M6PR may not exist at concentrations sufficient to prevent effective amounts of elosulfase alfa from reaching target tissues. Although NAbs that block uptake of drug are measureable in our cell-based NAb assay, this amount of NAbs may be insignificant relative to elosulfase alfa dose. This cell-based assay was designed to detect the lowest possible NAb concentrations, ideally prior to observed clinical effects. […] 53 (2014) 1137-1147]. […] 53 (2014) 1137-1147]. Although further investigation is needed, one aspect to the lack of neutralizing antibody effect on efficacy may be that rapid clearance of drug from plasma diminishes the rate of neutralizing antibody-elosulfase alfa complex formation. […] Scler. 15 (2009) 977-983].

[6] = NAb and TAb titers and positivity in individuals treated with elosulfase alfa (clinical study); type: in vivo, human
Method: Samples from a 24 week study of rhGALNS (elosulfase alfa) treatment were assessed for NAb at baseline and weeks 2, 4, 8, 12, 16, 20 and 24. rhGALNS was infused at 2.0 mg/kg body weight in two dosing cohorts, weekly and every other week (QOW). Positive samples (FIG. 2A) show comparatively low NAb titers [wk 24 mean 52 (range 0 to 1,098) in the weekly group and 130 (range 0 to 1,659) in the QOW group] relative to anti-rhGALNS total antibody (TAb) titers [wk 24 mean 167,737 (range 0 to 1.77×10^6) in the weekly group and 190,901 (range 810 to 1.77×10^6) in the QOW group] (FIG. 2B).
NAb titers and clinical outcomes To compare the functional NAb assay with the previously reported ELISA-based CI-M6PR binding assay for detecting NAb in elosulfase alfa-treated individuals with Morquio A syndrome [Schweighardt et al., supra], serum samples from the clinical trial were reanalyzed with the cell-based assay. Sufficient serum-sample volumes were available for the majority (842/847 [99%]) of serum sample collection time points to obtain confirmed positive/negative results. The overall concordance was high (89%) between NAb positivity in the receptor binding assay and the cell-based assay. Furthermore, the concordance was consistent over the 24-week treatment period (FIG. 9A).
TAb titers detected using the CI-M6PR binding assay reported previously [Schweighardt et al., supra] were compared to the time course for NAb titer development detected with the functional NAb assay (FIG. 9B). Titers of both TAbs and NAbs increased rapidly during the first 8 weeks of treatment then plateaued from week 8 to week 24 in both the QOW and QW treatment groups (FIG. 9B). Although the frequency of drug administration had minimal effect on TAb and NAb titers at week 24, the QW treatment group appeared to have higher titers of both TAbs and NAbs in the initial 4 weeks of treatment. Subjects in both the QOW and QW treatment groups developed different NAb titer courses over 24 weeks.

[7] = tested on: Jurkat cells; assay: Confocal imaging of Alexa488-rhGALNS internalization and trafficking to lysosomes; type: cell-based, human; conditions: LysoTracker Red
Method: Confocal Imaging: Internalization of Alexa488-rhGALNS and trafficking to lysosomes was confirmed by confocal microscopy by incubating cells from the functional NAb assay described in section 2.3 with 50 nM LysoTracker Red (Molecular Probes) at 37° C. for 1 h. Cells were then washed with serum-free RPMI-1640 and mounted with Prolong Gold Antifade Mountant with DAPI (Molecular Probes), sealed, and visualized using a Leica SP8 confocal microscope (Leica Microsystems). Confocal Z-stacks were acquired using a 63× Plan-Apo objective with 4× zoom and LASX software (Leica Microsystems). Z-stacks were rendered in 3-D and exported using Volocity software version 6.3 (PerkinElmer).

B1: Recombinant human N-acetylgalactosamine-6-sulfatase (protein, UniProt P34059 27-522, looked up)
N-acetylgalactosamine-6-sulfat …: APQPPNILLLLMDDMGWGDLGVYGEPSRETPNLDRMAAEGLLFPNFYSANPLCSPSRAALLTGRLPIRNGFYTTNAHARNAYTPQEIVGGIPDSEQLLPELLKKAGYVSKIVGKWHLGHRPQFHPLKHGFDEWFGSPNCHFGPYDNKARPNIPVYRDWEMVGRYYEEFPINLKTGEANLTQIYLQEALDFIKRQARHHPFFLYWAVDATHAPVYASKPFLGTSQRGRYGDAVREIDDSIGKILELLQDLHVADNTFVFFTSDNGAALISAPEQGGSNGPFLCGKQTTFEGGMREPALAWWPGHVTAGQVSHQLGSIMDLFTTSLALAGLTPPSDRAIDGLNLLPTLLQGRLMDRPIFYYRGDTLMAATLGQHKAHFWTWTNSWENFRQGIDFCPGQNVSGVTTHNLEDHTKLPLIFHLGRDPGERFPLSFASAEYQEALSRITSVVQQHQEALVPAQPQLNVCNWAVMNWAPPGCEKLGKCLTPPESIPKKCLWSH
notes: enzyme replacement therapy (elosulfase alfa) for the treatment of MPS IVA
Question: For B1, which “development of drug-specific total antibodies (TAb)” value ([1]; clinical study, treated individuals) is on record?
Answer: The value was “all individuals”.

Question: What about the “proportion of patients with NAb positivity” value ([1]; week 36) of the same molecule?
Answer: The value was 85.9%.

Question: And the “proportion of patients with NAb positivity” value ([1]; week 120)?
Answer: Its value is 66.0%.

Question: And the “concentration of unlabeled rhGALNS that reduced Alexa488-rhGALNS uptake” value ([2]; NPS without AbPC)?
Answer: The value was at least 0.22 µg/mL.

Question: What about the “rhGALNS concentration the assay can tolerate before interference with Alexa488-rhGALNS uptake” value ([2]; drug tolerance) of the same molecule?
Answer: The value was “up to 0.22 μg/mL”.

Question: What about the “highest neat concentration of rhGALNS at which the low and high PC-spiked samples screened positive” value ([2]; highest concentration tested) of the same molecule?
Answer: The value was 2.00 µg/mL.

Question: What about the “NHPS (% SI)” value ([2]; unlabeled elosulfase alfa 0.0027 μg/mL) of the same molecule?
Answer: The value was −10.84 % SI.

Question: And the “NHPS (% SI)” value ([2]; unlabeled elosulfase alfa 0.008 μg/mL)?
Answer: The value was 3.79 % SI.

Question: What about the “NHPS (% SI)” value ([2]; unlabeled elosulfase alfa 0.025 μg/mL) of the same molecule?
Answer: The value was −7.21 % SI.

Question: And the “NHPS (% SI)” value ([2]; unlabeled elosulfase alfa 0.074 μg/mL)?
Answer: Its value is −5.58 % SI.

Question: And the “NHPS (% SI)” value ([2]; unlabeled elosulfase alfa 0.22 μg/mL)?
Answer: The value was 8.00 % SI.

Question: And the “NHPS (% SI)” value ([2]; unlabeled elosulfase alfa 0.67 μg/mL)?
Answer: Its value is 26.94* % SI.

Question: What about the “NHPS (% SI)” value ([2]; unlabeled elosulfase alfa 2.00 μg/mL) of the same molecule?
Answer: Its value is 55.42* % SI.

Question: What about the “impact of NAb titers on efficacy (6MWT, uKS)” value [3] of the same molecule?
Answer: Its value is “no detrimental impact”.

Question: What about the “half-life (t1/2)” value ([4]; 2.0 mg/kg QOW) of the same molecule?
Answer: The value was 19 min.

Question: What about the “plasma Cmax” value ([4]; 2.0 mg/kg QOW) of the same molecule?
Answer: Its value is 2600 ng/mL.

Question: And the “half-life (t1/2)” value ([4]; 2.0 mg/kg QW)?
Answer: Its value is 36 min.

Question: And the “plasma Cmax” value ([4]; 2.0 mg/kg QW)?
Answer: The value was 4000 ng/mL.

Question: And the “CL with increased NAb titers (trend)” value [5]?
Answer: The value was “decreased”.

Question: What about the “t1/2 with increased NAb titers” value [5] of the same molecule?
Answer: Its value is “prolonged”.

Question: What about the “mean NAb titer” value ([6]; at 12 weeks) of the same molecule?
Answer: Its value is 118±271.

Question: What about the “NAb titer, mean” value ([6]; wk 24, 2.0 mg/kg QOW group) of the same molecule?
Answer: Its value is 130.

Question: And the “anti-rhGALNS total antibody (TAb) titer, mean” value ([6]; wk 24, 2.0 mg/kg QOW group)?
Answer: The value was 190,901.

Question: And the “NAb titer, mean” value ([6]; wk 24, 2.0 mg/kg weekly group)?
Answer: Its value is 52.

Question: And the “anti-rhGALNS total antibody (TAb) titer, mean” value ([6]; wk 24, 2.0 mg/kg weekly group)?
Answer: Its value is 167,737.

B2: Alexa488-rhGALNS (conjugate, UniProt P34059 27-522, looked up)
N-acetylgalactosamine-6-sulfat …: B1 N-acetylgalactosamine-6-sulfat …
modifications: Alexa488 label
Question: Which results are given for B2?
Answer: MFI ([2]; cells incubated at 4° C.): 92.9±1.50; MFI ([2]; cells incubated at 37° C.): 4425±98.6; Kuptake ([2]; Hanes-Woolf plot linear regression, dose-response 0 to 363.6 nM): 46.3 nM; Kuptake ([2]; Jurkat T cells, 4 hours incubation at 37° C.): approximately 5 μg/mL; localization by confocal imaging [7]: co-localized with lysosomes
